From patent US20150064134A1

Target: MAPKAP-K2(h) (human) (UniProt P49137)
Test: cell-based or functional assay

## MMI-0100 (peptide)
  IC50 (radiometric kinase activity assay): 22 µM
